From patent WO2007076336A1

Molecular target: Human CGRP (Example 4, isoform not stated) (human) (UniProt P80511)
Assay: cell-based or functional assay

UniProt P80511, sequence (P80511 2-92 limits assumed): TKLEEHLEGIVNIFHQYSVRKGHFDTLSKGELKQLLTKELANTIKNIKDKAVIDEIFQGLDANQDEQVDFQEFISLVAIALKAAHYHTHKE

monoclonal antibody C7113 (Sigma-Aldrich, St. Louis, MO)
IC50, inhibition of CGRP-induced cAMP in SK-N-MC cells (HTRF): 10.1 nM
